Here are results for 3 molecules from patent publication US5362864, “Trans-activating factor-1” (The Trustees of the Rockefeller University).

For data set [1], the target named is T1, truncated TAF-1 (p5a product from Met-22) (Nicotiana tabacum, UniProt Q99142 SEQ:1-244).
T1 sequence: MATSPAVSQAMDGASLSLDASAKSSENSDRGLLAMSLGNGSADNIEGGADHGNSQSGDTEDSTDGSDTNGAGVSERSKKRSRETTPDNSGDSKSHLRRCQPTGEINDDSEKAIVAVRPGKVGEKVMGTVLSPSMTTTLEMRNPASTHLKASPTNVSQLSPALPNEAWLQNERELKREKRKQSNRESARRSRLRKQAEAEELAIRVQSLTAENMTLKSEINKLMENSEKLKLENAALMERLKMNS
The data set can be described thus: competition; 3 ng gave about 50% competition against WT probe; 200 ng needed for WT; direct EMSA also stronger than WT (FIG. 4A). The note with it: tags: expressed from pSK(-) lacZ promoter in E. coli, ammonium sulfate fraction; chain copies: 2 (inferred). The source says: (§1) FIG. 4A. TAF-1 preferentially binds to a perfect palindromic sequence. Tetramers of WT motif I, the mutant M1, and the perfect palindrome (PA), […], (SEQ. ID NO: 9) were used as probes in gel mobility shift-assays with E. coli extracts containing the truncated TAF-1. F, free probe; NC, non-specific complex. The specific complexes, indicated with arrowheads, have a slower mobility as compared to the non-specific complex. FIG. 4B. Relative binding affinities of TAF-1 to motif I (WT) and related sequences. WT motif I tetramer was used as a probe in gel mobility shift assays with E. coli extracts containing the truncated TAF-1. Different concentrations of tetramers of mutants M1 to M5, as well as the tetramer of the perfect palindromic sequence (PA) were tested for their ability to compete with the WT sequence for TAF-1. For WT, PA, M1 and M5, the concentrations that gave approximately 50% competition were used in the experiments shown here. Higher concentrations were used for mutants M2, M3 and M4. Comp., Competitor. FIG. 4C. Nucleotide sequences of WT (SEQ. ID NO: 11), mutants M1 to M5 (SEQ. ID NOS: 10, 13, 14, 15 and 12), and the perfect palindrome, PA (SEQ. ID NO: 9). In this figure, the WT motif I of the tetramer is shown with the TACGTG hexanucleotide as the core sequence. The 5' nucleotide G of the motif is derived from the 3' nucleotide of the preceding motif in the tetramer. […]

For data set [2], the target named is T1, truncated TAF-1 (p5a product from …). The data set can be described thus: competition; 60 ng gave about 50% competition; increased affinity also in direct EMSA. The note with it: tags: expressed from pSK(-) lacZ promoter in E. coli, ammonium sulfate fraction; chain copies: 2 (inferred).
Source text: as §1
Background: Mobility shift assays separate free from complexed probe on a gel.

The target is the same in data set [3]. Kind of data set: competition; self competition; direct EMSA complexes in FIG. 2D; poly(dI-dC). The note with it: tags: expressed from pSK(-) lacZ promoter in E. coli, ammonium sulfate fraction; chain copies: 2 (inferred); label: fill-in labelled.
Source text: as §1

B1: PA perfect palindrome (G-box) tetramer (dsDNA)
DNA 1: GCCACGTGGCGCCACGTGGCGCCACGTGGCGCCACGTGGC
DNA 2: GCCACGTGGCGCCACGTGGCGCCACGTGGCGCCACGTGGC
Turning to B1, the binding signal in data set [1] is ~66 fold vs WT.

B2: M1 tetramer (dsDNA)
DNA 1: CAACGTGGCGCAACGTGGCGCAACGTGGCGCAACGTGGCG
DNA 2: CGCCACGTTGCGCCACGTTGCGCCACGTTGCGCCACGTTG
Take B2: in data set [2], the binding signal amounted to 3.3 fold vs WT.

B3: motif I WT tetramer (dsDNA)
DNA 1: GTACGTGGCGGTACGTGGCGGTACGTGGCGGTACGTGGCG
DNA 2: CGCCACGTACCGCCACGTACCGCCACGTACCGCCACGTAC
Take B3: in data set [3], the IC50 was ~200 ng.
